The values that follow come from publication PMC6563293.

Like-named read-outs stand apart in the source and are kept apart here.

The data set concerns MBP::P1 (Wheat streak mosaic virus (isolate Sidney 81)). The data set is described as follows: EMSA. A general note: Mobility shift assays separate free from complexed probe on a gel.

As for 21-nt GFP ds-siRNA, the K half (5' phosphate) was 0.03 nmol. 24-nt GFP ds-siRNA gave a K half (5' phosphate) of 0.03 nmol. 180-nt GFP dsRNA: the K half turned out to be 0.03 nmol.
